Test results reported in patent publication US20230331827A1, “POTASSIUM CHANNEL INHIBITORS” (priority 2017, published 2023).

Columns and labels:
[1] = tested on: activated T cells in PBMCs; assay: Cytokine and Granzyme-B secretion by anti-CD3 activated PBMCs (Luminex); format: cell-based; conditions: 100 nM, 72 hours, 5 donors, compared to KB_A12
Procedure: Methods for measuring cytokine release from T cells are well known to those skilled in the art (eg Tarcha et al, (2012) J Pharmacology and Experimental Therapeutics, 342 p642-653). Peripheral blood mononuclear cells (PBMCs) were isolated from 5 healthy donors and were simulated by culturing in 96-well plates pre-coated with 500 ng/ml of the anti-CD3 antibody OKT3 (ebioscience, Cat. No. 16-0037-85). PBMCs were suspended at 2 × 10^6 cells/ml and 100 ul of cells suspension mixed with 100 ul of test sample (KB_A12_ShK) or positive control (free ShK toxin, Alomone labs, STS-400) or negative control (parental KnotBody KB_A12) at a final concentration of 100 nM. (Samples were in triplicate for KB_A12_ShK or duplicate for KB_A12 and free ShK). Cells were incubated at 37° C. for 72 hours, centrifuged at 1500 rpm for 5 mins at room temperature before removing 150 ul of supernatant. After 72 hours incubation, the concentration of cytokines and Granzyme-B was determined using a Luminex bead based assay according to manufacturers instructions (Thermo Fisher).

trypsin = assay: Phage TRF binding assay on immobilised biotinylated trypsin (monoclonal phage ELISA); conditions: for % reduction in binding signal: GlyAla mutant (Pro3, Arg4 of EETI-II substituted) versus the clone, monoclonal phage; for Tryspin binding signal (FU): monoclonal phage supernatant, biotinylated trypsin on neutravidin plates
How it was run: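 Monoclonal phage from single clones tested for binding to biotinylated trypsin immobilised on neutravidin-coated plates. Bound phage detected with mouse anti-M13 antibody then europium-conjugated anti-mouse antibody, read by time-resolved fluorescence. Clones with >3x signal over background scored positive.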

Molecule | Secretion of Granzyme B [1] | Secretion of Interferon gamma [1] | Secretion of TNF-alpha [1] | Secretion of interleukin-17A [1] | % reduction in binding signal (trypsin) [%] | Tryspin binding signal (FU) (trypsin) | phage binding to trypsin (trypsin; PEG precipitated phage, compared to EETI-II cow ULVC-Ab, FIG. 25)
KB_A12_ShK: ShK toxin in VL CDR2 of KB_A12, IgG1 (antibody, V domains shown) VH: EVQLVESGGGLVRPGGSLRLSCAASGFTFSSYAMSWVRQAPGKGLEWVSAISGSGGSTYYADSVKGRFTISRDNTKNSLYLQMTSLRADDTAFYYCVKDFGPGYGTGWFDYWGPGTLVTVSS VL: QSVLTQPPSVSEAPRQRVTITCSGSSSNIGNNAVNWYQQLPGKAPKLLIYAAGRRSCIDTIPKSRCTAFQCKHSMKYRLSFCRKTCGTCANSGVSDRFSAAKSGTSASLAINGLRSEDEADYYCAAWDDSLNGYVFGTGTKLTVLG | reduced | reduced | reduced | reduced |  |  | 
KB_A07: EETI-II knottin fused into VL CDR2, D1A12 VH; parental KnotBody, isotype control (antibody, V domains shown) VH: EVQLVESGGGLVRPGGSLRLSCAASGFTFSSYAMSWVRQAPGKGLEWVSAISGSGGSTYYADSVKGRFTISRDNTKNSLYLQMTSLRADDTAFYYCVKDFGPGYGTGWFDYWGPGTLVTVSS VL: DIQMTQSPSSLSASVGDRVTITCRASQSISSYLNWYQQKPGKAPKLLIYAAGVCPRILMRCKQDSDCLAGCVCGPNGFCGSRSGVPSRFSGSGSGTDFTLTISSLQPEDFATYYCQQGASPPYTFGQGTKVEIKRT |  |  |  |  | 98 | 21448 | 
KB_A12: EETI-II knottin fused into VL CDR2, D1A12 VH; parental KnotBody, isotype control (antibody, V domains shown) VH: EVQLVESGGGLVRPGGSLRLSCAASGFTFSSYAMSWVRQAPGKGLEWVSAISGSGGSTYYADSVKGRFTISRDNTKNSLYLQMTSLRADDTAFYYCVKDFGPGYGTGWFDYWGPGTLVTVSS VL: QSVLTQPPSVSEAPRQRVTITCSGSSSNIGNNAVNWYQQLPGKAPKLLIYAAGRCPRILMRCKQDSDCLAGCVCGPNGFCGANSGVSDRFSAAKSGTSASLAINGLRSEDEADYYCAAWDDSLNGYVFGTGTKLTVLGQP |  |  |  |  | 99 | 69349 | superior binding to trypsin
